Values of other authors in publication PMC4554922.

Molecular target: SAS-6 head domain (UniProt Q6UVJ0)

Q: Which Kd does the source give for SAS-6 head domain (from UniProt Q6UVJ0) here?
A: 80 µM
